Laboratory results published in US20200256882A1, “FLUID PROPERTY MEASUREMENT DEVICES AND METHODS” (Abram Scientific, Inc., priority 2019, published 2020).

Tested on: whole blood samples (extrinsic coagulation pathway)
Experiment: Thromboelastogram (TEG) coagulation test on disposable test strip
Type: biochemical
Settings: blood samples with increasing concentrations, 0 to 1.8 nM; FIG. 19(b)
Experimental: The disposable test strips used in this example were incorporated with a reagent comprising of rabbit brain thromboplastin (Pacific Hemostasis Prothrombin Time reagent, Thromboplastin-DS, Product# 29-227-3), calcium chloride (25 mM) and Tween (2% v/v aqueous solution). Prior to the final assembly of the strip, the reagent was incorporated by dispensing the solution on to the exposed hydrophilic surface in the bottom stack, followed by air-drying in a drying box with humidity control at standard room temperature and pressure. The ratio of the volume of the reagent to blood tested in the chamber was maintained at close to 2:1 to ensure successful initiation of the blood coagulation reaction. […] Lastly, in some tests, blood samples were also tested using 2 Haemonetics' TEG-5000 instruments (2 tests per instrument) and their corresponding TEG curve & parameters were recorded, in order to perform side-by-side comparison with the results generated using the disposable test strips. Results: • In this example, the oscillation characteristics (amplitude and phase) of the in-plane vibration mode of a physical element in single-use disposable test strips were measured as a function of frequency in the vicinity of the resonance frequency, and these amplitude & phase frequency scans were monitored periodically to determine different aspects of the blood coagulation cascade. […]

B1: tPA: tissue plasminogen activator, enhances the external fibrinolysis process (protein, UniProt P00750 36-562, looked up)
Tissue-type plasminogen …: SYQVICRDEKTQMIYQQHQSWLRPVLRSNRVEYCWCNSGRAQCHSVPVKSCSEPRCFNGGTCQQALYFSDFVCQCPEGFAGKCCEIDTRATCYEDQGISYRGTWSTAESGAECTNWNSSALAQKPYSGRRPDAIRLGLGNHNYCRNPDRDSKPWCYVFKAGKYSSEFCSTPACSEGNSDCYFGNGSAYRGTHSLTESGASCLPWNSMILIGKVYTAQNPSAQALGLGKHNYCRNPDGDAKPWCHVLKNRRLTWEYCDVPSCSTCGLRQYSQPQFRIKGGLFADIASHPWQAAIFAKHRRSPGERFLCGGILISSCWILSAAHCFQERFPPHHLTVILGRTYRVVPGEEEQKFEVEKYIVHKEFDDDTYDNDIALLQLKSDSSRCAQESSVVRTVCLPPADLQLPDWTECELSGYGKHEALSPFYSERLKEAHVRLYPSSRCTSQHLLNRTVTDNMLCAGDTRSGGPQANLHDACQGDSGGPLVCLNDGRMTLVGIISWGLGCGQKDVPGVYTKVTNYLDWIRDNMRP
  fibrinolysis rate Lys-Rate: increasing trend
